These results are taken from patent US20250186614A1, “COMPACT DRUG RESPONSIVE DOMAINS FOR REGULATION OF FUNCTION/ABUNDANCE AND DELIVERY OF POLYPEPTIDE PAYLOADS” (OBSIDIAN THERAPEUTICS, INC., priority 2022, published 2025).

Substitutions are numbered along the chain they refer to. Names may count otherwise.

This experiment deals with Jurkat cells. As to the kind of experiment: Tacrolimus dose response of FKBP13-AcGFP-mCherry constructs stably transduced into Jurkat cells, GFP MFI by flow cytometry. The arrangement: Basal: unit not given here. As to conditions: for DRD function after abrogating the disulfide bonds: FIG. 4; for basal AcGFP expression: absence of tacrolimus. It counts as cell-based. The protocol: The regulation of AcGFP, from FKBP13-AcGFP-mCherry constructs, in Jurkat cells, was also studied. Jurkat Clone E6-1 cells were cultured in standard media (RPMI+GlutaMAX Supplement (Life Technologies, Carlsbad, CA Cat #61870127), Fetal Bovine Serum (FBS) (Life Technologies Cat #10-082-147)). Jurkat cells were transduced with lentivirus produced with each of FKBP-039, FKBP-040, FKBP-041, FKBP-042, FKBP-043, FKBP-044, or FKBP-045 constructs. Jurkat cells were transduced until they were 10-25% positive, as determined on day 5 post-transduction, by using mCherry as a transduction marker. […] The Geometric Mean Fluorescent Intensity (MFI) of GFP expression in mCherry+ cells was plotted and dose response curve fits were performed using Prism Software (San Diego, CA).
FKBP-091 was used as a comparative construct.
FIGS. 22-38 show the results of characterization of FKBP-160-292. […] FKBP-091 and FKBP-117 was used as a comparative control for FKBP-160-FKBP-255. FKBP-195 was used as a comparative control for FKBP-256-FKBP-275. FKBP-117, FPBP-195 and FKBP-251 were used as a comparative control for FKBP-276-FKBP-292.
FKBP mutants were cloned in a manner to make a fusion protein with AcGFP in order to assess FKBP mutant regulation by using AcGFP expression as a readout. […] Further iterative FKBP mutants (FKBP-256-FKBP-292) were constructed from these initial combinatorial mutants to see if we could further improve FKBP DRD properties.
A general note: A flow cytometer gives signals particle by particle.

[1] abbreviates: tacrolimus dose response, Jurkat cells stably transduced (FIG. 4), Table 4.
Where [2] appears, read: tacrolimus, Jurkat cells, Table 13.

B1: FKBP-062: FKBP13 DRD Q72R, Q84E, A117H, M54A, [−]disulfide; SEQ ID NO: 18 (protein)
chain: HSPIKSRKGDVLHAHYTGKLEDGTEFDSSLPRNQPFVFSLGTGEVIKGWDQGLLGMSEGEKRKLVIPSELGYGERGHPPKIPGGATLVFEVELLKIER
modifications: disulfide removed; Description of sequence: FKBP13-AcGFP-mCherry Fusion; Construct Name: FKBP-062; FKBP13 DRD in Construct : FKBP13 (mutated to match FKBP12 active site - Q72R Q84E A117H) (DRD - M54A [-]disulfide)
For B1, the “DRD function after abrogating the disulfide bonds” value (tacrolimus dose response) is recorded as “did not create a significant difference in DRD function”. The Fold Change under setting [1] is given as 10.4.

B2: FKBP-054: FKBP13 DRD Q72R, Q84E, A117H, D90G, L127K; SEQ ID NO: 10 (protein)
chain: B1 chain with S2C, A14M, D50G, S57C, L87K
modifications: Description of sequence: FKBP13-AcGFP-mCherry Fusion; Construct Name: FKBP-054; FKBP13 DRD in Construct : FKBP13 (mutated to match FKBP12 active site - Q72R Q84E A117H) (DRD - D90G L127K)
For the molecule B2, the Fold Change under setting [1] is given as 0.9.

B3: FKBP-263: based on FKBP-215 removing the M54A mutation (protein)
chain: B1 chain with S2C, P3R, A14M, E44G, V45R, S57C, H77W, K95Y
modifications: Description of sequence: Construct Name: FKBP-263; Mutation(s): Q72R Q84G A117W V85R DRD P43R K135Y
notes: based on FKBP-215 removing the M54A mutation
On to B3, for which the “basal AcGFP expression” value was “retained the low basal AcGFP expression”. Moreover, under “FIG. 49, BR1 (Biorep 1)”, the Basal is reported as 56, the FC was determined as 49.02 and the “At 10 uM” value came out at 2745. Further, where the note is “FIG. 49, BR2 (Biorep 2)”, the Basal was found to be 63.3, the FC was determined as 45.75 and the “At 10 uM” value is recorded as 2896. Besides, the FC (tacrolimus, FIGS. 31 and 32) was 56. Under setting [2], the “Fold Change” value worked out at 56.

B4: FKBP-272: constructed from FKBP-195 by changing the K135Y mutation to K135L (protein)
chain: B1 chain with S2C, A14M, V45R, S57C, H77W, K95L
modifications: Description of sequence: Construct Name: FKBP-272; Mutation(s): Q72R Q84E A117W V85R DRD K135L
notes: constructed from FKBP-195 by changing the K135Y mutation to K135L
For B4, the “basal AcGFP expression” value was “lower basal AcGFP expression”. Under “FIG. 39”, this molecule came in with a Basal of 71.5, an FC of 85 and a Peak of 5857. Besides, where the note is “FIG. 50”, the Basal is 55.6, the FC stood at 105.86 and the “At 10 uM” value stood at 5886. Also, under setting [2], the “Fold Change” value is 105.86.

B5: FKBP-063: FKBP13 DRD Q72R, Q84E, A117H, M54A, C42S; SEQ ID NO: 19 (protein)
chain: B1 chain with S57C
modifications: Description of sequence: FKBP13-AcGFP-mCherry Fusion; Construct Name: FKBP-063; FKBP13 DRD in Construct : FKBP13 (mutated to match FKBP12 active site - Q72R Q84E A117H) (DRD - M54A C42S )
For B5, the “DRD function after abrogating the disulfide bonds” value (tacrolimus dose response) is on record as “did not create a significant difference in DRD function”. Also, under setting [1], the Fold Change is recorded as 7.3.

B6: FKBP-053: FKBP13 DRD Q72R, Q84E, A117H, D90G, F66H; SEQ ID NO: 9 (protein)
chain: B1 chain with S2C, A14M, F26H, D50G, S57C
modifications: Description of sequence: FKBP13-AcGFP-mCherry Fusion; Construct Name: FKBP-053; FKBP13 DRD in Construct : FKBP13 (mutated to match FKBP12 active site - Q72R Q84E A117H) (DRD - D90G F66H)
Consider B6, for which the Fold Change under setting [1] amounted to 1.0.
